According to the Immune Epitope Database (IEDB):

Legend:
[1] = target: HLA-A*02:03; assay: IEDB peptide-MHC binding, purified MHC/direct/fluorescence; filed as Kd, often an IC50 or EC50 that approximates it; ≥ and ≤ were set here for values at or beyond the usual limits of such assays
[2] = target: HLA-A*03:01; assay: as above
[3] = target: HLA-A*02:19; assay: as above
[4] = target: HLA-B*46:01; assay: as above
[5] = target: HLA-A*29:02; assay: as above; conditions: source organism: Brucella suis 1330
[6] = target: HLA-A*02:01; assay: as above
[7] = target: HLA-A*26:01; assay: as above
[8] = target: HLA-A*69:01; assay: as above; conditions: source organism: Brucella suis 1330
[9] = target: HLA-A*02:12; assay: as above
[10] = target: HLA-B*57:01; assay: as above
[11] = target: HLA-B*18:01; assay: as above
[12] = target: HLA-B*27:03; assay: as above
[13] = target: HLA-A*68:02; assay: as above
[14] = target: HLA-A*23:01; assay: as above; conditions: source organism: Brucella suis 1330
[15] = target: HLA-A*24:03; assay: as above; conditions: source organism: Brucella suis 1330
[16] = target: HLA-B*51:01; assay: as above
[17] = target: HLA-B*15:01; assay: as above
[18] = target: HLA-B*15:17; assay: as above; conditions: source organism: Brucella suis 1330
[19] = target: HLA-A*02:16; assay: as above
[20] = target: HLA-B*48:01; assay: IEDB peptide-MHC binding, purified MHC/competitive/fluorescence; filed as Kd, often an IC50 or EC50 that approximates it; ≥ and ≤ were set here for values at or beyond the usual limits of such assays
[21] = target: HLA-B*39:01; assay: as above
[22] = target: HLA-A*02:03; assay: as above
[23] = target: HLA-A*03:01; assay: as above
[24] = target: HLA-A*02:19; assay: as above
[25] = target: HLA-B*46:01; assay: as above
[26] = target: HLA-A*29:02; assay: as above
[27] = target: HLA-A*02:01; assay: as above
[28] = target: HLA-A*69:01; assay: as above
[29] = target: HLA-A*02:12; assay: as above
[30] = target: HLA-A*02:11; assay: as above
[31] = target: HLA-B*18:01; assay: as above
[32] = target: HLA-B*27:03; assay: as above
[33] = target: HLA-A*23:01; assay: as above; conditions: source organism: Vibrio vulnificus YJ016
[34] = target: HLA-A*24:03; assay: as above
[35] = target: HLA-A*02:16; assay: as above
[36] = target: HLA-C*03:03; assay: IEDB peptide-MHC binding, purified MHC/direct/fluorescence; filed as Kd, often an IC50 or EC50 that approximates it; ≥ and ≤ were set here for values at or beyond the usual limits of such assays; conditions: source organism: Mycobacterium tuberculosis variant bovis BCG str. Pasteur 1173P2
[37] = target: HLA-C*05:01; assay: as above; conditions: source organism: Mycobacterium tuberculosis variant bovis BCG str. Pasteur 1173P2
[38] = target: HLA-A*02:06; assay: IEDB peptide-MHC binding, purified MHC/competitive/fluorescence; filed as Kd, often an IC50 or EC50 that approximates it; ≥ and ≤ were set here for values at or beyond the usual limits of such assays
[39] = target: HLA-A*26:01; assay: as above; conditions: source organism: Yersinia mollaretii ATCC 43969
[40] = target: HLA-B*57:01; assay: as above; conditions: source organism: Yersinia mollaretii ATCC 43969
[41] = target: HLA-A*68:02; assay: as above; conditions: source organism: Yersinia mollaretii ATCC 43969
[42] = target: HLA-B*51:01; assay: as above; conditions: source organism: Yersinia mollaretii ATCC 43969
[43] = target: HLA-B*15:01; assay: as above; conditions: source organism: Yersinia mollaretii ATCC 43969
[44] = target: HLA-B*15:17; assay: as above; conditions: source organism: Yersinia mollaretii ATCC 43969
[45] = source organism: Brucella suis 1330
[46] = source organism: Vibrio vulnificus YJ016
[47] = source organism: Mycobacterium tuberculosis variant bovis BCG str. Pasteur 1173P2
[48] = source organism: Human immunodeficiency virus 1
[49] = source organism: Yersinia mollaretii ATCC 43969
[50] = source organism: Vibrio cholerae V52

MHCDFAFWV
Kd [1, 45]: ≥ 20 µM
Kd [2, 45]: ≥ 20 µM
Kd [3, 45]: ≥ 20 µM
Kd [4, 45]: ≥ 20 µM
Kd [5]: ≥ 20 µM
Kd [6, 45]: ≥ 20 µM
Kd [7, 45]: ≥ 20 µM
Kd [8]: ≥ 20 µM
Kd [9, 45]: ≥ 20 µM
Kd [10, 45]: ≥ 20 µM
Kd [11, 45]: ≥ 20 µM
Kd [12, 45]: ≥ 20 µM
Kd [13, 45]: ≥ 20 µM
Kd [14]: ≥ 20 µM
Kd [15]: ≥ 20 µM
Kd [16, 45]: ≥ 20 µM
Kd [17, 45]: ≥ 20 µM
Kd [18]: ≥ 20 µM
Kd [19, 45]: ≥ 20 µM

RRLRTLVLA
Kd ([20]; source organism: Tick-borne encephalitis virus): ≥ 20 µM

HTSALSLGY
Kd [21, 46]: ≥ 20 µM
Kd [22, 46]: ≥ 20 µM
Kd [23, 46]: 0.0179 µM
Kd [24, 46]: ≥ 20 µM
Kd [25, 46]: ≥ 20 µM
Kd [26, 46]: ≤ 0.0001 µM
Kd [27, 46]: ≥ 20 µM
Kd [28, 46]: ≥ 20 µM
Kd [29, 46]: ≥ 20 µM
Kd [30, 46]: ≥ 20 µM
Kd [31, 46]: ≥ 20 µM
Kd [32, 46]: ≥ 20 µM
Kd [33]: ≥ 20 µM
Kd [34, 46]: ≥ 20 µM
Kd [35, 46]: ≥ 20 µM

YLAEGHACL
Kd [36]: 0.002 µM
Kd [37]: 0.151 µM
Kd [22, 47]: ≤ 0.001 µM
Kd [24, 47]: 0.0033 µM
Kd [28, 47]: 0.378 µM
Kd [29, 47]: 0.0026 µM
Kd [30, 47]: ≤ 0.001 µM
Kd [35, 47]: ≤ 0.001 µM
Kd [38, 47]: ≤ 0.001 µM

FLGKIWSS
Kd [22, 48]: 0.00138 µM
Kd [24, 48]: 0.00233 µM
Kd [27, 48]: 0.0075 µM
Kd [28, 48]: ≥ 5 µM
Kd [29, 48]: 0.0005 µM
Kd [30, 48]: ≤ 0.0001 µM
Kd [35, 48]: ≤ 0.0001 µM
Kd [38, 48]: ≤ 0.0001 µM

KRAAAGIMK
Kd ([20]; source organism: Dengue virus 2 Thailand/NGS-C/1944): ≥ 20 µM

DEQEFFYSQ
Kd [21, 49]: ≥ 20 µM
Kd [22, 49]: ≥ 20 µM
Kd [23, 49]: ≥ 20 µM
Kd [24, 49]: ≥ 20 µM
Kd [25, 49]: ≥ 20 µM
Kd [26, 49]: ≥ 20 µM
Kd [27, 49]: ≥ 20 µM
Kd [39]: ≥ 20 µM
Kd [28, 49]: ≥ 20 µM
Kd [29, 49]: ≥ 20 µM
Kd [40]: ≥ 20 µM
Kd [30, 49]: ≥ 20 µM
Kd [31, 49]: 0.0003 µM
Kd [32, 49]: ≥ 20 µM
Kd [41]: ≥ 20 µM
Kd [34, 49]: ≥ 20 µM
Kd [42]: ≥ 20 µM
Kd [43]: ≥ 20 µM
Kd [44]: ≥ 20 µM
Kd [35, 49]: ≥ 20 µM

LPYPVLLKI
Kd [1, 50]: ≥ 20 µM
Kd [2, 50]: ≥ 20 µM
Kd [3, 50]: ≥ 20 µM
Kd [4, 50]: ≥ 20 µM
Kd [6, 50]: ≥ 20 µM
Kd [7, 50]: ≥ 20 µM
Kd [9, 50]: ≥ 20 µM
Kd [10, 50]: ≥ 20 µM
Kd [11, 50]: ≥ 20 µM
Kd [12, 50]: ≥ 20 µM
Kd [13, 50]: ≥ 20 µM
Kd [16, 50]: 0.054 µM
Kd [17, 50]: ≥ 20 µM
Kd [19, 50]: ≥ 20 µM
